{"source": "patent US20140234868A1", "about": "“USE FOR GLYCOLIPOPROTEIN GINTONIN, ISOLATED AND IDENTIFIED FROM GINSENG, AS A NATURAL MEDICAL-PLANT DERIVED LIGAND” (KONKUK UNIVERSITY INDUSTRIAL COOPERATION CORP., priority 2011, published 2014)", "molecules": {"B1": {"name": "gintonin: ginseng-derived glycolipoprotein; structural protein of ginseng major latex-like protein (MLP151) and ribonuclease-like storage proteins; crude gintonin used in tests (protein)", "chain 1": "MGLTGKLICQTGIKSDGDVFHELFGTRPHHVPNITPANIQGCDLHEGEFGKVGSVVIWNYSIDGNAMIAKEEIVAIDEEDKSVTFKVVEGHLFEEFKSIVFSVHVDTKGEDNLVTWSIDYEKLNESVKDPTSYLDFLLSVTRDIEAHHLPK", "chain 2": "RSDYPWAMFALRLQWPAGFCEVNNACDTKSLLNTFTIHGLYPYNAKGTPALYCDGTAFDVNSVSDFLAEMHLAWPSHETNTEDIQFWEHEWKKHGRCSEALLKQTDYFRTALAFRKAFDIVGLLNQEGIYPNNDLYRPKMIKEAIKKHLNAVPEIDFTKNENSEYVLTDINVCVNQQATRFVDCPTDDATDDYRLKFVRLPSKMKFADPRTNSII"}}, "key": {"HUVECs": {"system": "HUVECs", "assay": "HUVEC proliferation, BrDU incorporation ELISA", "type": "cell-based, human", "conditions": "gintonin 24 hrs", "protocol": "In this Example, gintonin was examined for effect on cell growth. In this regard, HUVECs (human umbilical vein endothelial cells) were cultured with BrDU in the presence of gintonin, and analyzed for relative BrDU content by BrDU assay (Won et al., J Pharmacol Sci 108, 372-379, 2008; Chen et al., Cell Physiol Biochem 22, 307-314, 2008) using a BrDU cell proliferation ELISA kit (Roche, Germany).\nBriefly, cells were seeded at a density of 3×10^3 cells/well into 96-well plates one day before treatment with gintonin. After 24 hrs of incubation, the cells were cultured for 6 hrs in a fresh M199 medium supplemented with […]. Again, the medium was changed to a fresh M199 medium supplemented with […], after which the cells were incubated with gintonin for 24 hrs. For an additional 24 hrs, the cells were incubated with a BrDU labeling reagent. After medium was removed, the cells were washed with 10% FBS-supplemented M199, fixed with a fixative, and quantitatively analyzed for relative intracellular BrDU content using an anti-BrDU-peroxidase antibody and a luminometer (Veritas, Turner Biosystems, USA)."}, "rat adrenal gland": {"system": "rat adrenal gland", "assay": "Catecholamine secretion from perfused rat adrenal gland", "protocol": "Male rats (Sprague-Dawley, each weighing 200 to 300 g) was anesthetized by an to intraperitoneal injection of thiopental sodium (50 mg/kgm), and the adrenal gland was excised from the rats according to the method of Wakade and Woo et al. (Wakade, J Physiol. 313, 463-480, 1981; Woo et al., Korean J Physiol Pharmacol., 12, 155-164, 2008).\nBriefly, a cannula was inserted so as to perfuse the adrenal gland, as illustrated in FIG. 18. During the cannula insertion, heparin (400 IU/ml) was infused into the vena cava in order to prevent blood coagulation. Then, the adrenal gland was isolated from the body, and transferred to a leucite chamber which was kept at 37±1° C.\nThe adrenal gland was perfused at a rate of 0.33 ml/min with the aid of a peristaltic pump (ISCO® pump, WIZ Co. U.S.A.). The perfusion solution was a Krebs-bicarbonate solution: (mM) NaCl, 118.4; KCl, 4.7; CaCl2, 2.5; MgCl2, 1.18; NaHCO3, 25; KH2PO4, 1.2; glucose, 11.7.\nThe perfusion solution was continuously aerated with 95% O2+5% CO2 gas, and was maintained to have pH 7.4-7.5. In addition, the perfusion solution was supplemented with EDTA ([…]) and ascorbic acid ([…]) to prevent the oxidation of catecholamines (Woo et al., Korean J Physiol Pharmacol., 12, 155-164, 2008).\nGintonin (1˜10 μg/ml) or cyclopiazonic acid (10 μM) was applied by perfusion for 4 min while acetylcholine (5.32 mM) was infused at a dose of 50 μl using a three-way stopcock.\nPrior to treatment with a material stimulating catecholamine secretion, the adrenal gland was left until the secretion of catecholamine in the absence of stimuli reached a constant level, that is, a background or basal level, which typically took 5˜10 min. Then, the adrenal gland was perfused with gintonin or other drugs, and perfusates effluent from the adrenal gland were collected at regular intervals of 4 min, and the amount of catecholamines released by drug stimulation was calculated by subtracting the background or basal level from measurements (Woo et al., Korean J Physiol Pharmacol., 12, 155-164, 2008).\nIn order to examine the effect of gintonin on the spontaneous secretion of catecholamine and on the stimulus-induced secretion of catecholamine, the adrenal gland was perfused with a Krebs solution containing gintonin alone or in combination with other drugs, after which the perfusates were collected until the amount of secreted catecholamine reached the background level. The collected adrenal perfusates were stored in tubes maintained at 4° C.\nCatecholamine in the perfusates was quantified using a fluorospectrophotometer (Kontron Co., Milano, Italy) according to the methods of Anton and Sayre, and Lim. In this regard, each perfusate amounted to 0.2 ml (Woo et al., Korean J Physiol Pharmacol., 12, 155-164, 2008)."}, "LPA6 receptor": {"biological_target": "T1, LPA6 receptor (Homo sapiens, UniProt P43657)", "T1 construct": "host or cells: B103 rat neuroblastoma cells", "T1 sequence (P43657 1-344)": "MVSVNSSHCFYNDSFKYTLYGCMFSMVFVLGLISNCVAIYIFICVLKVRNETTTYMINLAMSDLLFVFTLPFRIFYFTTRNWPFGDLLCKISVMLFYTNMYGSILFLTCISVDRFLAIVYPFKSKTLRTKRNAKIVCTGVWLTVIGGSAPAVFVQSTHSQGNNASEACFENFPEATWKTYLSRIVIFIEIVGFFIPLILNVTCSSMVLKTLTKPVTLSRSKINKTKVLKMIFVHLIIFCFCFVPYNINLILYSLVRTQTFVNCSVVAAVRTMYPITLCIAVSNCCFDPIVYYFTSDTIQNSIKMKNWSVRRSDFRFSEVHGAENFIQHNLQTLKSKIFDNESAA", "assay": "Intracellular cAMP level in LPA6-expressing B103 cells", "type": "cell-based", "description": "(§1) After treatment with gintonin, B103 cells expressing LPA3 or LPA6 receptor were examined for change in intracellular cAMP level."}, "[1]": {"system": "mouse EAT (Ehrlich Ascites Tumor)", "conditions": "mouse EAT cells; PLC-coupled pathway; cited from earlier work"}, "LPA3 receptor": {"biological_target": "T2, LPA3 receptor (Homo sapiens, UniProt Q9UBY5)", "T2 construct": "host or cells: B103 rat neuroblastoma cells", "T2 sequence (Q9UBY5 1-353)": "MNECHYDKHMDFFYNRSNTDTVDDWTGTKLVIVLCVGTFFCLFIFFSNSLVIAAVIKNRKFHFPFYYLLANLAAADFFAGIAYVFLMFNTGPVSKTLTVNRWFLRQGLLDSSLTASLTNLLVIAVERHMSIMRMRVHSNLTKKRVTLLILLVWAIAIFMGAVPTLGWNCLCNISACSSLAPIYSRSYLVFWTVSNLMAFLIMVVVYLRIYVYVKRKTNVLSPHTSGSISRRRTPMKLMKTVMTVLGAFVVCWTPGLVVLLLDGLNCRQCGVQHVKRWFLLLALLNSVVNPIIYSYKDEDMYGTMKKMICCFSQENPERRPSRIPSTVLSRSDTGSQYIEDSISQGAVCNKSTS", "assay": "Intracellular cAMP level in LPA3-expressing B103 cells", "type": "cell-based", "description": "as §1"}}}
{"molecule": "B1", "values": [{"measurement": "incorporation of Br-DU into DNA", "setting": "HUVECs", "result": "increase the incorporation of Br-DU into the DNA of HUVECs in a concentration-dependent manner"}, {"measurement": "catecholamine secretion after acetylcholine", "setting": "rat adrenal gland; gintonin 1 μg/ml, pre-treatment with 5.32 mM acetylcholine", "result": "incapacitated the effect"}, {"measurement": "catecholamine secretion after acetylcholine", "setting": "rat adrenal gland; gintonin 3 μg/ml, 5.32 mM acetylcholine", "result": "continually promote the secretion of catechlamine"}, {"measurement": "catecholamine secretion after acetylcholine", "setting": "rat adrenal gland; gintonin 10 μg/ml, 5.32 mM acetylcholine", "result": "stimulates the secretion of catecholamine in the early stage, but could not induce the secretion since then"}, {"measurement": "catecholamine secretion", "setting": "rat adrenal gland; gintonin 1~10 μg/ml, perfusion at 15-min intervals", "result": "continually secrete catecholamine in a dose-dependent manner"}, {"measurement": "change in intracellular cAMP level", "setting": "LPA6 receptor", "result": "no influences on intracellular cAMP level"}, {"measurement": "transient increase in cytoplasmic free Ca2+ level", "setting": "[1]", "result": "induces a transient increase in cytoplasmic free Ca^2+ level"}, {"measurement": "change in intracellular cAMP level", "setting": "LPA3 receptor", "result": "no influences on intracellular cAMP level"}]}
